100 substances from the supplement of paper PMC11502859 can be followed below.

Where “and” joins values, the source holds several entries; their conditions need not be identical. Equal values may be shown once.
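Further: lentiviral eGFP-IRES-mCherry reporter pool sorted by FACS 96 h post-transduction, gated on mCherry-high cells, Illumina read counts normalized per million, median across four biological replicates.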

This data set relates to HEK293T. The data set is described as follows: median enrichment of reporter reads in eGFP-reduced (low/intermediate) vs eGFP-high sorted cells (eGFP-extension fusion abundance) (ratio); higher = stronger loss of eGFP-fusion protein abundance (more destabilising extension).
CLERW [LCOR]: the median enrichment is 1.17.

Regarding CLFCPHIFCFLGRMAEAWWLPPRSGTD [NR1H3], the median enrichment is 12.1.

Regarding “CLGKAGHKNLHEQYFFLNRMFYYSSQVLECLHTII [FAM24A]”, the median enrichment is 4.34.

Consider CLGPGRATGSSQAAARMLISKRCWSLPS [ZBTB39], for which the median enrichment stood at 30.1.

As for “CLGVKAFHGHPCTGYLLVMLQNVSPTLCPSLALLPQSP [TEX35]”, the median enrichment came out at 11.2.

For the substance CLHW [RIMKLB], the median enrichment was found to be 3.73.

For the substance CLL [ACSBG2], the median enrichment came out at 7.26.

With CLQGSKLQR [OR7A5], the median enrichment is 3.17.

For “CLSGRANPENEDWKKEKKKNTSKVSSEIVLHLLYSLEDFHYVLTTLKCVNS [FOXP1]”, the median enrichment came out at 9.44.

For the substance “CLSLPSSWDYSHTPPHLDNFVFLVETGFHYVGQAGLKLLSSGDPSASASQNAGITSVSHYTWFFFPLFANSHGVFWHHFQHYF [RBP1]”, the median enrichment stood at 8.27.

In the case of CLSTVLFS [SUDS3], the median enrichment stood at 5.55.

Take “CMNEWVCWVGEGPGEGSGTEGMPGSLLPTASTDQQGLGQGGHPGGRGRLPPCLPAGGPRRRAGRVHVCGCPGDPGCLPCLPRP [TMEM91]”: the median enrichment was 4.17.

Regarding “CNDKSRSKEIVGPKGKEGKSAPRLGPGTHTPPDHLGNSRALRSRMLTKSNIQSLVNQDAVSPSVWQSVALAAGKLKADFHSYV [RNF150]”, the median enrichment was found to be 4.3.

Turning to “CNHLTRTIGAPVASAHCLSLEKWRNKCYIYLCV [FAM149A]”, the median enrichment turned out to be 6.79.

As to CNTM [STAP1], the median enrichment came out at 0.724.

On to CPADTLPPPAPSTLSWAPPYLNL [NGF], for which the median enrichment was found to be 0.552.

For the substance CPAVGMAGLPGQTR [SLC25A10], the median enrichment turned out to be 0.543.

For “CPCSRVSQGHFAATAAFPEIKQPGAVASELRGAGGRARTLGLGHGALSLKATFLTYSLYITQRP [CTNS]”, the median enrichment was determined as 3.76.

On to “CPDHGQGLPPCAPQLSPSKCVLRASLFFTAAATFPHCLRCREGQVPASTGISDKPRAQPTRGSSLHAHTGYGDGGLQVSSARG [SSNA1]”, for which the median enrichment is 7.23.

For the substance CPLNAANSASRTPNNSA [OR2AT4], the median enrichment is 0.496.

“CPLSATHVVPSLPSFHLDVPPSPTSAPLLPRLDLKPELPLNLEYATYNMQAAKHPFCTRRLEWNCHVQ [PRR20A]”: the median enrichment came out at 5.57.

For the substance CPQPGY [B3GNT7], the median enrichment is 0.431.

On to “CPSGPPLPLGQGNQLLRDFSCLEGAVIAPPHCPTVLLGL [FBXW4]”, for which the median enrichment was 12.6.

Regarding “CPVPARQKEQCQPHQDRWGFESALIWVCLGAPA [SLC37A3]”, the median enrichment was 5.61.

CQFKEKKM [PHTF2]: the median enrichment is 0.408.

On to “CQKHKMMQCGPPCTFCNVIAVNGKTIALLKTHL [MARCH11]”, for which the median enrichment worked out at 12.3.

Turning to “CQLLHILGPCLFSQDRLLKAEEPVLGAPSQTPKTCFHVPRSLLTSPNKGP [PSENEN]”, the median enrichment came to 26.4.

In the case of “CQVLCGAEIPCRHFACSNQQDPAPRSPGAIIMQPAVLLWRGQVTFQKTPSWMGLPFCSSPHSRISNGSLL [BCL2L11]”, the median enrichment was 11.

For the substance “CRALMSPTRKLTPNKRLPFPLGFFVLFLSKRDR [IPO5]”, the median enrichment was determined as 4.2.

Consider CRDLAERWRSHQGPRDNYQEQKPLPVPH [IGSF22], for which the median enrichment was determined as 3.87.

With CRFLLKLTLFHLSF [VHL], the median enrichment is 24.3 and 30.2.

On to CRKVSKNVNIL [C2orf49], for which the median enrichment worked out at 0.739.

In the case of CRL [ACADSB], the median enrichment is 4.42.

CRRPPGGGSGGRCVDPTASSSY [FRAT2]: the median enrichment was determined as 0.875.

Turning to CRRQKISFVQKSKMKRM [INSIG2], the median enrichment came out at 3.96.

With CRSWRTLGPRPAPIAGGR [MKNK2], the median enrichment stood at 8.08.

As for CRVAFFLL [GTF2A1], the median enrichment was 11.

In the case of CRVSLWPLSGIPGGRGGEGGTHIVNS [BDH1], the median enrichment amounted to 6.12.

For “CSDGGWSLSESSALPSPGDEGNSLCFAEKILWINTEAPATPEGWRLLSLPILQSGSKPSKTAPEHCFSWVQS [C3orf52]”, the median enrichment is 13.3.

As to CSDVPFIYNNVKCNCLVP [TCP1], the median enrichment turned out to be 4.71.

As for “CSFPVPSHYSPKLGKGGGTYEKNSSGFITDWE [CNOT9]”, the median enrichment was found to be 3.28.

As to CSFQRNMVSGQKDC [ZNF831], the median enrichment was 0.731.

Regarding CSLG [MAGEC2], the median enrichment came out at 0.658.

For “CSLHLGGGSLGKSTQTCTTVQQQGSLLPAVPPPPVYTT [SEZ6]”, the median enrichment is 19.3.

Take CSPMPAHL [CDNF]: the median enrichment worked out at 7.02.

As to CSQVGFA [TUSC3], the median enrichment worked out at 0.572.

In the case of CSSVYELPFHSAFRNYILAFIFNLPTYFK [ATM], the median enrichment turned out to be 8.5.

On to CSWSRG [MLIP], for which the median enrichment stood at 6.67.

As to CTKAWA [IFNGR2], the median enrichment turned out to be 0.778.

As to CTLGAVSSKSL [ZFC3H1], the median enrichment turned out to be 0.779.

Turning to “CTRAGGGAERGAPPPLRSLALSRPSCSLSNF [POU3F2]”, the median enrichment came out at 4.86.

On to CTTQDTHSTCMNNTGHTQARA [CCDC40], for which the median enrichment is 1.14.

CVAGVEVLIEYDRRMTITLSAQCG [OR10H2]: the median enrichment turned out to be 6.41.

Turning to “CVARALGVLLEAPRASRIASQLPGQPTLLQPLTRTPVIRTGAPVPWSPPWAHVLTQAQQ [OVOL1]”, the median enrichment amounted to 8.09.

As to “CVETCAPRRGAAVREGLCTAAPATDPVRKYLLGASPGLGLGMRWSPGLSFLSTQWVILASTCRAPCQALPTHLPV [OLFML2A]”, the median enrichment was determined as 7.4.

As to CVF [LYRM7], the median enrichment was 0.777.

Regarding CVSSFTDSPQPFSCLKT [DPH6], the median enrichment was 3.83.

In the case of CVSYSSSMLGIPTAATMILVPERAMLLFQLV [MTMR8], the median enrichment is 23.9.

In the case of CVTVLDFSKTSFNTE [GABRB3], the median enrichment amounted to 4.69.

For the substance CVWGLAPCSPGPHCSHTLRLGPPSLLWC [TOM1], the median enrichment came out at 9.33.

As to CYSFQLLPLCLPG [TRIM55], the median enrichment is 7.06.

Turning to CYSK [FAM162B], the median enrichment is 0.641.

For DDD [Asp03], the median enrichment is 0.645.

DDDD [Asp04]: the median enrichment came out at 0.37.

Regarding DDDDD [Asp05], the median enrichment is 0.224.

For DDDDDD [Asp06], the median enrichment turned out to be 0.38.

DDDDDDD [Asp07]: the median enrichment was found to be 0.338.

On to DDDDDDDD [Asp08], for which the median enrichment was 0.299.

Take DDDDDDDDD [Asp09]: the median enrichment stood at 0.213.

As for DDDDDDDDDD [Asp10], the median enrichment came out at 0.433.

On to “DISSYLTMLSLLGAVLVGPGPCIMPRSQLQGPSWGPGWALGSGPCCSSPSHQPVPVVRKPGLLSSFLLGECQTQGPSTGLGWE [BAP1]”, for which the median enrichment is 5.92.

“DLASKKSCSVPCVLSFKGIFRINSDLEDSSVLQRLAFIFIVIMEMLSFILSYIRKKGVMQLISISLGNALVLFSSFLVPVTCL [CREB5]”: the median enrichment was 14.

With “DNPHPHCFWGSLSHLSHPVSCLCLSWCLSGLLSVSFCLSVSLPTPAPSFQCSGWLSLPFSPSLSALGSVSTAGPKVKVLPLPE [CCDC97]”, the median enrichment worked out at 5.65.

With “DPTPLWGSGTLHCTGSLHTGRGTCAPTSETCRSPQLTCPTGAQHCTQLVGRTRACLRELPAGVMQGGGEVQGRGAGLSCHQHF [MAP3K11]”, the median enrichment was found to be 2.41.

On to “DQPHSAQEAASGVGAQRGTAASSTAGCGAAGPGPSAWAAEYIFYLSETSIFLGSNPTCHHVDISSYLTMLSLLGAVLVGPGPC [BAP1]”, for which the median enrichment was 4.59.

With EAKSRCTQHVLGMQPQEVPDLKQPDSYLA [GREM1], the median enrichment came out at 0.305.

On to “EATKRPGFSSCCHQLALWPRARCLPFMFPHLQSELVVPDDLRSHDLLTCPMILYFVGRSIKQLLLLLCANHSCNFCSAYLPLF [ADAMTSL1]”, for which the median enrichment turned out to be 5.

Turning to EAWLPPESCSLKLGF [POU2AF1], the median enrichment is 0.528.

On to ECDKVQPSDLIIHKIIYT [ZNF679], for which the median enrichment amounted to 8.95.

For ECLSIKSGFAP [NPL], the median enrichment was determined as 0.687.

On to “ECPARAAAPATLPRVAFRAAPRVGNLGARGGRLGVPFFFSFSFAFRLFYFFLK”, for which the median enrichment amounted to 15.7.

For “ECPLFLFLLSPFSSLRSIGPLLSIFITRCFPLKHAHATVTKTNNYHFPNFIQNHFSVFLFPTPPTTFNDEIP [PHYHIPL]”, the median enrichment came out at 15.5.

Turning to “EDPGTQRLCPPRPQSVPITLTVLHTVHAPLLAFFREKENFTTGSH [SERTAD2]”, the median enrichment came to 6.58.

On to “EDTPSPDSTGNRSSPDSPPRRASPRPCTGSEASVTLPLCSPVP [KDM2A]”, for which the median enrichment amounted to 0.106.

On to EEE [Glu03], for which the median enrichment turned out to be 9.28.

With EEEE [Glu04], the median enrichment came out at 8.36.

Take EEEEE [Glu05]: the median enrichment turned out to be 1.41.

As to EEEEEE [Glu06], the median enrichment was determined as 1.59.

In the case of EEEEEEE [Glu07], the median enrichment is 1.23.

In the case of EEEEEEEE [Glu08], the median enrichment came to 0.411.

In the case of EEEEEEEEE [Glu09], the median enrichment worked out at 0.433.

On to EEEEEEEEEE [Glu10], for which the median enrichment came out at 0.42.

With “EEESLPPPKYWAALSLPRDHPSLPAMCTIMTNLFGYAVVLPFWGLGSTRRLCLQCRNLFSLCVAGARAQGPCLCIFNKYSFSK [GPR108]”, the median enrichment worked out at 0.994.

Regarding “EEITRWHQPRALARYGEGTWGPHLPPGLFREDPTVTPPSAVGAWRWAAGLNPPWGAPFLLPICVYIHK [MEF2B]”, the median enrichment stood at 6.73.

EESATNYNFTIKTGKRPGMVAHACNHSTLGG [OR6C6]: the median enrichment is 6.68.

Take “EETTHPEPQHCLTLGTRDPTEMFWRAGGFPQSPPSSSPSNQSCV [SERPINA6]”: the median enrichment was 0.705.

Regarding “EFFLELKHPRMPLHVFHSPHLQTSLLFLTRPESKLPSLGNSGEGVSCTTYHTPSHPVSDFGMDSGKLGPSLNRVMYLNVCYFQ [HSPA1L]”, the median enrichment is 5.31.

EFIFKRFSECAQNTWLK [TRMT10C]: the median enrichment stood at 5.59.

In the case of “EFILERNSTNVKNVTKLLSISLTLLHIRKFILEKNPTDVKNVAKPLSTPLNLLHIRDFILERNPTDVNNVVKLFTYPHTLLHI [ZNF626]”, the median enrichment amounted to 2.95.

As to EFILMKENVTKEMHEM [MYH4], the median enrichment worked out at 2.79.
